# Assay results as given in PMC2557009, “YB-1 promotes microtubule assembly in vitro through interaction with tubulin and microtubules” (BMC Biochemistry, 2008).
# B1: YB-1 (natural protein)
# chain: not shown
# notes: source: E. coli BL21(DE3), pET 3-1-YB-1 construct, purified (heparin-Sepharose, Sephacryl S-200)
# Target: the molecule itself
# Experiment: cross-linking; zero length cross-linker EDC (5 mM) / sulfo-NHS (12 mM); 1 μM tubulin and 0.3, 0.5, 0.8 or 1.2 μM YB-1, or each alone; 50 mM MES-KOH pH 6.8, 1 mM MgCl2, 1 mM EGTA, 0.5 mM GTP, 1 h at 30°C; SDS-PAGE, Coomassie and Western blot
protein,measurement,value
B1,stoichiometry N,2
